# Test results taken from US20190343964A1 (SHIZUOKA PERFECTURE, published 2019).
# T1: B7-H4 expressed on the membrane surface of cancer cells (human, UniProt Q7Z7D3 25-282)
# T1 sequence (looked up): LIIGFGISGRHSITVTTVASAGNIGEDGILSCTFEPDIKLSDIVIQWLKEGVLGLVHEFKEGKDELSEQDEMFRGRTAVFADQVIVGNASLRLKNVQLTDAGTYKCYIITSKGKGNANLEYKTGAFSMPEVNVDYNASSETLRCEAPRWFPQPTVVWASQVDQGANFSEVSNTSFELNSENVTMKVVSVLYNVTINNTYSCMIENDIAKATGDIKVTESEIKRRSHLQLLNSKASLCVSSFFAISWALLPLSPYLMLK
# T2: soluble human B7-H4 recombinant protein (human, UniProt Q7Z7D3 25-259)
# T2 construct: also called a free form of B7-H4
# T2 sequence: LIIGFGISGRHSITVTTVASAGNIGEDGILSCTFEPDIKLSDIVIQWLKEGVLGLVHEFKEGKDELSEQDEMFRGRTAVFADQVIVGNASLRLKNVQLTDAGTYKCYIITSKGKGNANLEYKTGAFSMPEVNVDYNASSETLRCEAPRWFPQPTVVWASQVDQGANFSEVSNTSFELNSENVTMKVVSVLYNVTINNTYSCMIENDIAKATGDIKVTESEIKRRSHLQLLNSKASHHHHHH
# What was measured:
# [1] = biological target: T1, B7-H4 expressed on the membrane surface …; assay: cell-based or functional assay
# [2] = biological target: T2, soluble human B7-H4 recombinant protein; assay: ELISA, hybridoma culture supernatant diluted 2 times on immobilized free form of B7-H4
# Method: Specifically, the free form of B7-H4 was added to a 96 well Immobilizer Amino Plate (Thermo Fisher Scientific) and incubated at room temperature for 2 hours to immobilize the free form of B7-H4 on the plate surface. Simultaneously, wells with no immobilization of the free form of B7-H4 were prepared as negative control. After incubation, the antigen that was not immobilized was removed and the wells were filled with PBS containing 3% BSA and incubated at 4° C. overnight. In this step, nonspecific binding capacity to the plate surface was blocked to produce a plate for ELISA.
# The culture supernatant of each of the plurality of hybridoma lines obtained in Example 2 was 2-times diluted with PBS containing 0.05% Tween20 to prepare a supernatant sample. The buffer was removed from the wells of the aforementioned plate for ELISA and then the supernatant sample was added and incubated at room temperature for 2 hours. The plate was washed to remove the unbound antibody and then a horseradish peroxidase (HRP) labeled anti-mouse immunoglobulin antibody (GE Healthcare) was added and incubated for 1 hour. The wells were washed, then a peroxidase substrate (BD Biosciences) was added and incubated for 30 minutes, and a sulfuric acid solution at a concentration of 0.1 M or higher was added to stop the color development. Whether an antibody that recognizes B7-H4 in a supernatant sample was contained was examined by measuring the absorption of the solution in each well at a wavelength of 450 nm.
Binder,OD 450 nm [2] [OD 450 nm],"50% maximum effective concentration (EC50) of cytotoxicity (% Lysis) to MDA-MB-468 cells, LDH release, with human peripheral blood mononuclear cells, 16 hours [1] [µg/mL]"
Fab-scFv according to the present invention (bispecific antibody) heavy: not shown light: NIQMTQSPSSLAVSAGEKVTMSCKSSHAVLYSSNQKNYLAWYQQKPGQSPKLLIYWASTRDSGVPDRFTGGGSGTDFTLTITNIQPEDLAVYYCHQYLSSWTFGGGTKVEIKRTVAAPSVFIFPPSDEQLKSGTASVVCLLNNFYPREAKVQWKVDNALQSGNSQESVTGQDSKDSTYSLSSTLALSKADYEKHKVYACEVTHQGLSSPVTKSFNRGEC,,0.013
"H4.121 (antibody, V domains shown, Mouse hybridoma monoclonal antibody; also called anti-B7-H4 monoclonal antibody produced from hybridoma clone #121) VH: QVQLQQSGAELMKPGASVKISCKATGYTFSSYWIEWVKQRPGHGLEWIGEILHGSDSTNYNENFKGKATFTADTSSNTAYMRLSSLTSEDSAVYYCASHYYGSSPFAYWG VL: not shown",2.02,
"H4.051 (antibody, V domains shown, Mouse hybridoma monoclonal antibody; also called anti-B7-H4 monoclonal antibody produced from hybridoma clone #51) VH: EVQLQQSGAELVRSGASVKLSCTASGFNIKDFYVHWVKQRPEQGLEWIGWIDPAHVDTEYAPKFQGKTTMTADTSSNTAYLQLSSLTSEDSAVYYCNALLPRTMDYWG VL: DVVLTQTPLSLPVNVGDQASISCKSTKSLLNSDGFTYLDWYLQKPGQSPQLLIYLVSNRFSGVPDRFSGSGSGTDFTLKISRVEAEDLGVYYCFQSNYLPYTFG",1.96,
"H4.209 (antibody, V domains shown, Mouse hybridoma monoclonal antibody; also called anti-B7-H4 monoclonal antibody produced from hybridoma clone #209) VH: EVKLVESGGGLVKPGGSLKLSCAASGFTFSNYALSWVRQTPEKRLEWVASISGGGSTYYPDSVKGRFIISRDNARNILYLQMSSLRSEDTAMYYCARGPSYDDYYFDVWG VL: not shown",1.93,

# Further lines, with some results ahead:
OD 450 nm [2] [OD 450 nm],Binder,"50% maximum effective concentration (EC50) of cytotoxicity (% Lysis) to MDA-MB-468 cells, LDH release, with human peripheral blood mononuclear cells, 16 hours [1] [µg/mL]"
1.06,"H4.140 (antibody, V domains shown, Mouse hybridoma monoclonal antibody; also called anti-B7-H4 monoclonal antibody produced from hybridoma clone #140) VH: EVQLVESGGDLVKPGGSLKLSCAASGFTFSTYGMSWVRQTPDKRLEWVATISSGGNYTYYPDSVKGRFTISRDNAKNTLYLQMSSLKSEDTAMYYCARPYGNHFDYWG VL: DIQMTQSPASLAASVGETVTITCRASENIYYSLAWYQQKQGKSPQLLIYNANSLEDGVPSRFSGSGSGTQYSMKINSMQPEDTATYFCKQAYDVPYTFG",
1.96,H4.018 (antibody) chain 1: EVKLVESGGGLVKPGGSLKLSCAASGFTFSSYAMSWVRQTPEKRLEWVATISSGGNYTYYPDSVKGRFTISRDNAKNTLYLQMSSLRSEDTAMYYCARHRYDNNYDYYAMD chain 2: NIQMTQSPSSLAVSAGEKVTMSCKSSHAVLYSSNQKNYLAWYQQKPGQSPKLLIYWASTRDSGVPDRFTGGGSGTDFTLTITNIQPEDLAVYYCHQYLSSWTFGGGTKVEIK,
